Experimental findings from article doi:10.1101/2022.10.17.512494 are described below.

The target in this assay is recombinant VE-cadherin-Fc (UniProt P55284). The assay is described as follows: atomic force microscopy.

Regarding “recombinant VE-cadherin-Fc (from UniProt P55284 46-599) (Fc fusion)”, the binding activity (binding probability) amounted to 61%.
